# Source: patent publication US20230057012A1, “TGFB INHIBITORS AND USE THEREOF” (Scholar Rock, Inc., priority 2020, published 2023)
# Entries after “also recorded” stand apart in the source; their conditions may differ.
# B1: Ab46: activation inhibitor of TGFβ1; H-CDR3 VSGHWDYD, L-CDR2 AASGLES, L-CDR3 QQTYGVPLT (Table 3) (antibody, V domains shown)
# VH: EVQLLESGGGLVQPGGSLRLSCAASGFTFADYAMTWVRQAPGKGLEWVSAISGSGAATYFADSVKGRFTISRDNSKNTLYLQMNSLRAEDTAVYYCARVSSGHWDYDYWGQGTLVTVSS
# VL: DIQLTQSPSSLSASVGDRVTITCRASQSISSYLNWYQQKPGKAPKLLIYAASGLESGVPSRFSGSGSGTDFTLTISSLQPEDFATYYCQQTYGVPLTFGGGTKVEIK
# How the values were obtained:
# hLTBP3-proTGFβ1 [1] = target: T1, hLTBP3-proTGFβ1 (Homo sapiens, UniProt P01137); assay: Biacore SPR Fab binding kinetics
# T1 construct: biotin (the antigen complex is biotinylated); made in house
# T1 sequence (P01137 30-390): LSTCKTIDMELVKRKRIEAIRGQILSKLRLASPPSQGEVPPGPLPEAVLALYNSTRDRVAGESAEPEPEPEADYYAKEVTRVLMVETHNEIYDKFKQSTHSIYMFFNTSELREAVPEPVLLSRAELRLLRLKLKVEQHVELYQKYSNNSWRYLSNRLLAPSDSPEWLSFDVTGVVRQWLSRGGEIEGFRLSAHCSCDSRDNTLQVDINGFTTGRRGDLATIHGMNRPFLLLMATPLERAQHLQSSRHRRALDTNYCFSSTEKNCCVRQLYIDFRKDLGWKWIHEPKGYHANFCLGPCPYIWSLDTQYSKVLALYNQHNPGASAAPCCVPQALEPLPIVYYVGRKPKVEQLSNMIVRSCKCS
# T1 sequence (Q9NS15 44-1303 partner): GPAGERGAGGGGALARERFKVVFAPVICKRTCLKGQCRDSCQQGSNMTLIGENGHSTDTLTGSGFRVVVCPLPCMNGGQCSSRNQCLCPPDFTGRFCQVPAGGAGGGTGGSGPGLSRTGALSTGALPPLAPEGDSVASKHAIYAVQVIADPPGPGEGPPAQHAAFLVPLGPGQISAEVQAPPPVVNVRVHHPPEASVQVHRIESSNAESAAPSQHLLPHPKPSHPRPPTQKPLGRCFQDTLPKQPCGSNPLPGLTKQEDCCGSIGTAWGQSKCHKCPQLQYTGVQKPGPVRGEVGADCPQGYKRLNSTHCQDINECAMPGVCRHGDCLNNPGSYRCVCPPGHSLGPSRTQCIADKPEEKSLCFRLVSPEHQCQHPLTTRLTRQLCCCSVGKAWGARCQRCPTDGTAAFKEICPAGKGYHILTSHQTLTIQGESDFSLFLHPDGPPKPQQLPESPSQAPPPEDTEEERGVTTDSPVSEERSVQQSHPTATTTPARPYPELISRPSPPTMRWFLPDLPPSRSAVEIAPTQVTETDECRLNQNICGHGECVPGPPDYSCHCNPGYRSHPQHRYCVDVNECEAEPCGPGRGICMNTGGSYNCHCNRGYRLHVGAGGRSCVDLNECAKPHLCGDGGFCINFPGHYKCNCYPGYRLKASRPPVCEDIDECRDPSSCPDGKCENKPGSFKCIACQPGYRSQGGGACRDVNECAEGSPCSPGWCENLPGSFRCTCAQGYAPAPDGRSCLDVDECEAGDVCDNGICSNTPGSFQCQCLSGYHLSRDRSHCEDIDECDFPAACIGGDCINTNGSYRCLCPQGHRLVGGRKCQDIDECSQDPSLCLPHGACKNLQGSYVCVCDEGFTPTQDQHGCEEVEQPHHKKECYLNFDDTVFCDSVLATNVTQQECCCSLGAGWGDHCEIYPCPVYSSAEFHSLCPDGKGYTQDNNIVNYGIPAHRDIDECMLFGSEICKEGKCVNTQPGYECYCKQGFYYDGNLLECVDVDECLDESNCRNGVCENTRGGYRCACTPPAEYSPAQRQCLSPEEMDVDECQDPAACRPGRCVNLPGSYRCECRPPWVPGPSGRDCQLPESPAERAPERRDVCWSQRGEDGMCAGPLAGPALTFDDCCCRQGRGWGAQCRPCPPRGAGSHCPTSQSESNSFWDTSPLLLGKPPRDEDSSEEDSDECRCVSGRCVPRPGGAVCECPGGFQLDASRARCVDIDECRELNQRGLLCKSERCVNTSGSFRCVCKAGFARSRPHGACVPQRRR
# Experimental: (§1) Among these antibodies, Ab42, Ab46 and Ab50 were selected for further evaluation. Surface plasmon resonance (SPR) was used to measure binding kinetics using a BIACORE® system. Association and dissociation kinetics of Fab fragments of Ab42, Ab46, Ab50 and a reference antibody (shown as “Ref”), to antigen complexes were measured, and resulting equilibrium dissociation constants (KD) are provided below. Experiments were carried out with eight types of LLCs, namely, hLTBP1-proTGFβ1, mLTBP1-proTGFβ1, hLTBP3-proTGFβ1, mLTBP3-proTGFβ1, hGARP-proTGFβ1, mGARP-proTGFβ1, hLRRC33-proTGFβ1 and mLRRC33-proTGFβ1.
# (§2) In vitro binding kinetics (on/off rates) were measured in Biacore-based assays and affinities were determined against all four known LLCs using both human and murine counterparts for each. Based on the association rate and dissociation rate, KD was calculated for each. In addition, relative affinities, as compared to the reference antibody as a benchmark, were calculated and expressed as “fold difference” relative to the reference antibody.
# (§3) A BIACORE® system was employed to determine the monovalent binding affinity and the kinetic parameters for antigen binding of test antibodies. The binding kinetics were evaluated by surface plasmon resonance using Biacore 8K (GE Healthcare). A Biotin CAP sensor chip was used to capture the biotinylated antigens. Fabs at various concentrations (0 nM, 0.62 nM, 1.25 nM, 2.5 nM, 5 nM and 10 nM) were injected over the captured antigens. Multi-cycle kinetics was employed where each analyte concentration was injected in a separate cycle and the sensor chip surface was regenerated after each cycle. All the assays were carried out in freshly prepared 1× HBS-EP+ buffer (10 mM HEPES, 150 mM NaCl, 3 mM EDTA, 0.05% Tween20, pH 7.4). Data for all the analyte concentrations for each interaction were fit globally to a 1:1 binding model to obtain the kinetic parameters. The Sensorgram for 0 nM analyte concentration was used as reference.
# (§4) The binding kinetics of antibody interactions with each of the antigen complexes, human LTBP1-ProTGFβ1, human LTBP3-ProTGFβ1, human GARP-ProTGFβ1, and human LRRC33-ProTGFβ1, were evaluated by surface plasmon resonance. Binding kinetics was evaluated by surface plasmon resonance using a BIACORE® 8K (GE) instrument. Biotinylated antigens were captured on a Biotin CAP chip and the Fab fragments of the antibodies were used as analytes. Sensorgrams for Fab binding at variable concentrations (0.6-10 nM) were globally fit to obtain the kinetic parameters.
# (§5) Binding kinetics for the Fabs were evaluated against each of the four human antigens, LTBP1-ProTGFβ1, LTBP3-ProTGFβ1, GARP-ProTGFβ1, and LRRC33-ProTGFβ1. […] These experiments were repeated.
# hGARP-proTGFβ1 [2] = target: T2, hGARP-proTGFβ1 (Homo sapiens, UniProt P01137); assay: Biacore SPR Fab binding kinetics
# T2 construct: biotin (the antigen complex is biotinylated); made in house
# T2 sequence (P01137 30-390): as the sequence (P01137 30-390) above
# T2 sequence (Q14392 18-627 partner limits assumed): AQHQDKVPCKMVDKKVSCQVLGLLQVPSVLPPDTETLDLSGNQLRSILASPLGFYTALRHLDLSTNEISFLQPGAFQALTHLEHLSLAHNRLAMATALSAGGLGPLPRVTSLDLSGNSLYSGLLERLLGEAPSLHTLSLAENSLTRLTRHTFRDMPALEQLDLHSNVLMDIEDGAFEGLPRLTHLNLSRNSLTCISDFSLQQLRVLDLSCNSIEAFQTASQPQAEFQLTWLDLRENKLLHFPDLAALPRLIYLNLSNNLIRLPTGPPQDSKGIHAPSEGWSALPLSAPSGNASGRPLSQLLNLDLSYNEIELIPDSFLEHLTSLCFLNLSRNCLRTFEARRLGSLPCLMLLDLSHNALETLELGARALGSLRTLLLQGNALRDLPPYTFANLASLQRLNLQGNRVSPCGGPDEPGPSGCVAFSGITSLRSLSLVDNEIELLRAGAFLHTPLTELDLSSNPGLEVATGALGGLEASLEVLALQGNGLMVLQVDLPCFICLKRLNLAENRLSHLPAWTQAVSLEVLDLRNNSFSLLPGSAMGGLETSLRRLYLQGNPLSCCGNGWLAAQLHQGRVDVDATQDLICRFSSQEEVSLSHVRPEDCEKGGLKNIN
# Experimental: as §1, §2, §3, §4, §5
# hLTBP1-proTGFβ1 [3] = target: T3, hLTBP1-proTGFβ1 (Homo sapiens, UniProt P01137); assay: Biacore SPR Fab binding kinetics
# T3 construct: biotin (the antigen complex is biotinylated); made in house
# T3 sequence (P01137 30-390): as the sequence (P01137 30-390) above
# T3 sequence (Q14766 347-1721 partner limits assumed): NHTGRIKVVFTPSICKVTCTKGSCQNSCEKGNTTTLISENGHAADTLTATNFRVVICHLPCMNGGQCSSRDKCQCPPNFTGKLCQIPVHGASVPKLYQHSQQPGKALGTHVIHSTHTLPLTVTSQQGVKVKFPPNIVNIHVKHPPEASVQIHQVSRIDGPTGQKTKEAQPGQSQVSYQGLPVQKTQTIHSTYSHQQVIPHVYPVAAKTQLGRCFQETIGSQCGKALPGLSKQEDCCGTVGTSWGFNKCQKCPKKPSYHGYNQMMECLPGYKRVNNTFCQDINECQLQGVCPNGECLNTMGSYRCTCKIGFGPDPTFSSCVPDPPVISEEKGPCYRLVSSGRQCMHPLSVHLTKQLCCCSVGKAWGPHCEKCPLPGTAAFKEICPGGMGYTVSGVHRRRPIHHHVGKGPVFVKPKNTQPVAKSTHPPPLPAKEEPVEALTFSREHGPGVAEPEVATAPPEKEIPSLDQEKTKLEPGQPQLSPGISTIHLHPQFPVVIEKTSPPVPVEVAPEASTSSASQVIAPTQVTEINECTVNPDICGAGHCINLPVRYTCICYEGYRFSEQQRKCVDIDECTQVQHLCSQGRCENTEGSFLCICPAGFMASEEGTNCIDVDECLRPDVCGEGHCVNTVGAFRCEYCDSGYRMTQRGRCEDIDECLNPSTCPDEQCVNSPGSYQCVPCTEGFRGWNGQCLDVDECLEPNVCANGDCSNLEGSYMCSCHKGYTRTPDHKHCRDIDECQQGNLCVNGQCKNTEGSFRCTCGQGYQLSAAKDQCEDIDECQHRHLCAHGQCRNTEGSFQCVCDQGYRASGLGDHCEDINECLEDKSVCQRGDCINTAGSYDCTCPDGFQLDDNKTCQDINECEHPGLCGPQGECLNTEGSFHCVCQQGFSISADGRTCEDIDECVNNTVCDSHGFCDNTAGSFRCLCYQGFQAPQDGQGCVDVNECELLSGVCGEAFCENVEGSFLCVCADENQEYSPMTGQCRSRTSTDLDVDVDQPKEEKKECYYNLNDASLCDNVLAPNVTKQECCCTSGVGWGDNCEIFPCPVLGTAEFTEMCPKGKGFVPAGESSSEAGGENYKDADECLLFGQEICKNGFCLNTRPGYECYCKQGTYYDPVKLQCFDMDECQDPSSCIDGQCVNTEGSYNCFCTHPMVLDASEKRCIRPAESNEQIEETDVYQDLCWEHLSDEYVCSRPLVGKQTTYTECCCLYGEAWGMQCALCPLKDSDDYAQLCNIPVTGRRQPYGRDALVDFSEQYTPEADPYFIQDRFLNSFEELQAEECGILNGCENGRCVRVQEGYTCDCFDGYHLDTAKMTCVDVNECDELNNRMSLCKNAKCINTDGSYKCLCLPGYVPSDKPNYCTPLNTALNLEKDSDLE
# Experimental: as §1, §2, §3, §4, §5
# hLRRC33-proTGFβ1 = target: T4, hLRRC33-proTGFβ1 (Homo sapiens, UniProt P01137); assay: Biacore SPR Fab binding kinetics
# T4 construct: biotin (the antigen complex is biotinylated); made in house
# T4 sequence (P01137 30-390): as the sequence (P01137 30-390) above
# T4 sequence (Q86YC3 with tags, fused parts or gaps partner limits assumed): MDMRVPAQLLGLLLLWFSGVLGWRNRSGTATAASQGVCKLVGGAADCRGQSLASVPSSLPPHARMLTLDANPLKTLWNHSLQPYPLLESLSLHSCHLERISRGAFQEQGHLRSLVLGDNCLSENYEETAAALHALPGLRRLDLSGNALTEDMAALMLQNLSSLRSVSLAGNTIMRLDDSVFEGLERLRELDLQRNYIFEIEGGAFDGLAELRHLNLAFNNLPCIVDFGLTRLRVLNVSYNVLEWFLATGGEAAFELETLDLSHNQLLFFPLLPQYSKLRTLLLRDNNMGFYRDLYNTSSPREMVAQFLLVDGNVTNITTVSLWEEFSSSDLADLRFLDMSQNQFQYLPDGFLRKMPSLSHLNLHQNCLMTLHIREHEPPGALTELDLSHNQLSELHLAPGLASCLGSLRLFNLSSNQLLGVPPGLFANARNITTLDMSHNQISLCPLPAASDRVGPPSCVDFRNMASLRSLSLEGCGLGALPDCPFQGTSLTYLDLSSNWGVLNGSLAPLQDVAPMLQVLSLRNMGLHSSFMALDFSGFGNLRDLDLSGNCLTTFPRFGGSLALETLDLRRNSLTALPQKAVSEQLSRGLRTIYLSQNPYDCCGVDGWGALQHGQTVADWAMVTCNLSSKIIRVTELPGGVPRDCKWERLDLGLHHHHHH
# Experimental: as §1, §2, §3, §4, §5
# hLTBP3-proTGFβ1 [4] = target: T1, hLTBP3-proTGFβ1; assay: Octet binding kinetics (BLI); conditions: Fab in solution, immobilized biotinylated antigen
# Experimental: (§6) The table below exemplifies binding kinetics of the listed antibodies (e.g., Fabs) obtained by OCTET®-based binding assays. The experiments were conducted with immobilized, biotinylated antigen and Fab fragments (e.g., test antibodies) in solution.
# (§7) In some embodiments, the binding affinity of an antibody, or antigen-binding portion thereof, to an antigen (e.g., protein complex), such as presenting molecule-proTGFβ1 complexes, is determined using an Octet assay. In some embodiments, an Octet assay is an assay that determines one or more a kinetic parameters indicative of binding between an antibody and antigen. In some embodiments, an OCTET® system (FORTEBIO®, Menlo Park, Calif.) is used to determine the binding affinity of an antibody, or antigen-binding portion thereof, to presenting molecule-proTGFβ1 complexes. For example, binding affinities of antibodies may be determined using the FORTEBIO® Octet QKe dip and read label free assay system utilizing bio-layer interferometry. In some embodiments, antigens are immobilized to biosensors (e.g., streptavidin-coated biosensors) and the […] are presented in solution at high concentration (50 μg/mL) to measure binding interactions. In some embodiments, the binding affinity of an antibody, or antigen-binding portion thereof, to a presenting molecule-proTGFβ1 complex is determined using the protocol outlined in Table 14.
# (§8) The protocol used to measure the affinity of the antibodies to the complexes provided herein is summarized in Table 14 below, and a summary list of affinity profiles of exemplary antibodies of the present disclosure is provided in Table 6 herein.
# hGARP-proTGFβ1 [5] = target: T2, hGARP-proTGFβ1; assay: Octet binding kinetics (BLI); conditions: Fab in solution, immobilized biotinylated antigen
# Experimental: as §6, §7, §8
# hLTBP1-proTGFβ1 [6] = target: T3, hLTBP1-proTGFβ1; assay: Octet binding kinetics (BLI); conditions: Fab in solution, immobilized biotinylated antigen
# Experimental: as §6, §7, §8
# LLCs = assay: ELISA binding to LLCs; conditions: hIgG4; FIGS. 3 and 4
# mLTBP1-proTGFβ1 [7] = target: T5, mLTBP1-proTGFβ1; assay: Biacore SPR Fab binding kinetics; design: species or system mouse; conditions: Table 6
# T5 construct: biotin (the antigen complex is biotinylated); made in house
# Experimental: as §1, §2, §3
# mLTBP3-proTGFβ1 [8] = target: T6, mLTBP3-proTGFβ1; assay: Biacore SPR Fab binding kinetics; design: species or system mouse; conditions: Table 8
# T6 construct: biotin (the antigen complex is biotinylated); made in house
# Experimental: as §1, §2, §3
# mGARP-proTGFβ1 [9] = target: T7, mGARP-proTGFβ1; assay: Biacore SPR Fab binding kinetics; design: species or system mouse; conditions: Table 10
# T7 construct: biotin (the antigen complex is biotinylated); made in house
# T7 sequence (P01137 30-390): as the sequence (P01137 30-390) above
# T7 sequence (G3XA59 18-628 partner limits assumed): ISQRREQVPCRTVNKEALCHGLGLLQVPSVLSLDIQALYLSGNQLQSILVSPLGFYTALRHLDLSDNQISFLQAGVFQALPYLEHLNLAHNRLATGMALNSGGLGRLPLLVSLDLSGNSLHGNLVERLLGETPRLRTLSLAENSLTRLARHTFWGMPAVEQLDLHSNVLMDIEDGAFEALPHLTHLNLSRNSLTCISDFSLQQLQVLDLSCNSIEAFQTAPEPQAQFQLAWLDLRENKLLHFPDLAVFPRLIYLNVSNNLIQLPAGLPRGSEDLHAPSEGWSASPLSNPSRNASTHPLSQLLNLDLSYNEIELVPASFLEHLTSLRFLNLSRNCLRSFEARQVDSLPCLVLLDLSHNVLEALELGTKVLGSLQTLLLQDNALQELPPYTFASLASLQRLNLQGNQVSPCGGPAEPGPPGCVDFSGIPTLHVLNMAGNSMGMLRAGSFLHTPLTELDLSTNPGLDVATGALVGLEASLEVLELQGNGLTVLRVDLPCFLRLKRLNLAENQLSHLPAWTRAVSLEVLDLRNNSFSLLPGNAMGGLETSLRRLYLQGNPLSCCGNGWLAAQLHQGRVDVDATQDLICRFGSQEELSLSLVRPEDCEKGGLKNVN
# Experimental: as §1, §2, §3
# mGARP-proTGFβ1 [10] = target: T8, mGARP-proTGFβ1 (Homo sapiens, UniProt P01137); assay: Biacore SPR Fab binding kinetics; design: species or system mouse; conditions: Table 10
# T8 construct: biotin (the antigen complex is biotinylated); made in house
# Experimental: as §1, §2, §3
# mLTBP1-proTGFβ1 [11] = target: T9, mLTBP1-proTGFβ1 (Homo sapiens, UniProt P01137); assay: Biacore SPR Fab binding kinetics; design: species or system mouse; conditions: Table 6
# T9 construct: biotin (the antigen complex is biotinylated); made in house
# Experimental: as §1, §2, §3
# mLRRC33-proTGFβ1 [12] = target: T10, mLRRC33-proTGFβ1 (Homo sapiens, UniProt P01137); assay: Biacore SPR Fab binding kinetics; design: species or system mouse; conditions: Table 12
# T10 construct: biotin (the antigen complex is biotinylated); made in house
# Experimental: as §1, §2, §3
# mLTBP3-proTGFβ1 [13] = target: T11, mLTBP3-proTGFβ1 (Homo sapiens, UniProt P01137); assay: Biacore SPR Fab binding kinetics; design: species or system mouse; conditions: Table 8
# T11 construct: biotin (the antigen complex is biotinylated); made in house
# Experimental: as §1, §2, §3
# mLRRC33-proTGFβ1 [14] = target: T12, mLRRC33-proTGFβ1; assay: Biacore SPR Fab binding kinetics; design: species or system mouse; conditions: Table 12
# T12 construct: biotin (the antigen complex is biotinylated); made in house
# Experimental: as §1, §2, §3
# CDHFD mice = assay: choline-deficient high fat diet (CDHFD) liver fibrosis model; type: in vivo
# [15] = tested on: Wistar-Han rats on a CDHF diet; assay: CDHFD target engagement study in rats; type: in vivo
# Experimental: A similar study was run in 10-12 week old male Wistar-Han rats as follows: rats were fed on a CDHF diet for 12 weeks and then randomized. A first dose of the negative control (“HuNEG” IgG4, 30 mg/kg, n=6) or Ab46 (3, 10, and 30 mg/kg, n=8) was given on Day 1, and a second dose was given on Day 3. Treatment with a TGF-β type 1 receptor (ALK5) kinase inhibitor (ALK5i, 10 mg/kg) was used as a positive control. Tissue collection (left lateral lobe) was performed on Day 5. All rats had detectable serum antibody exposure. […] The study was repeated with a broader dose range: rats were fed on a CDHF diet for 12 weeks and then randomized. A single dose of 0.3 mg/kg, 1 mg/kg, 3 mg/kg, 10 mg/kg, or 30 mg/kg of Ab46 was given on Day 1, and tissue collection was performed after 48 hours.
molecule,measurement,setting,value
B1,KOFF,"hLTBP3-proTGFβ1 [1]; Biacore 8K, Table 22",0.000195 s⁻¹
same,kon,"hLTBP3-proTGFβ1 [1]; Biacore 8K, Table 22",1.78e+06 M⁻¹ s⁻¹
same,KOFF,"hLTBP3-proTGFβ1 [1]; Biacore, Table 7",0.000128 s⁻¹
same,KON,"hLTBP3-proTGFβ1 [1]; Biacore, Table 7",1.00E+06 M^−1/s^−1
same,KOFF,"hGARP-proTGFβ1 [2]; Biacore 8K, Table 22",0.000359 s⁻¹
same,kon,"hGARP-proTGFβ1 [2]; Biacore 8K, Table 22",1.89e+06 M⁻¹ s⁻¹
same,KOFF,"hGARP-proTGFβ1 [2]; Biacore, Table 9",0.000222 s⁻¹
same,KON,"hGARP-proTGFβ1 [2]; Biacore, Table 9",9.65E+05 M^−1/s^−1
same,KOFF,"hLTBP1-proTGFβ1 [3]; Biacore 8K, Table 22",8.52e-05 s⁻¹
same,kon,"hLTBP1-proTGFβ1 [3]; Biacore 8K, Table 22",2.44e+06 M⁻¹ s⁻¹
same,KOFF,"hLTBP1-proTGFβ1 [3]; Biacore, Table 5",8.81e-05 s⁻¹
same,KON,"hLTBP1-proTGFβ1 [3]; Biacore, Table 5",1.75E+06 M^−1/s^−1
same,time bound to the antigen relative to the reference antibody,"hLTBP1-proTGFβ1 [3]; SPR, FIG. 2, antigen not given",more than 50 times
same,t1/2 (dissociation),"hLTBP1-proTGFβ1 [3]; SPR, FIG. 2, antigen not given, values fit the KOFF of Table 5",over 130 minutes
same,KOFF,"hLRRC33-proTGFβ1; Biacore 8K, Table 22",0.000162 s⁻¹
same,kon,"hLRRC33-proTGFβ1; Biacore 8K, Table 22",1.36e+06 M⁻¹ s⁻¹
same,KOFF,"hLRRC33-proTGFβ1; Biacore, Table 11",0.000128 s⁻¹
same,KON,"hLRRC33-proTGFβ1; Biacore, Table 11",1.52E+06 M^−1/s^−1
same,KOFF,hLTBP3-proTGFβ1 [4],0.000438 s⁻¹
same,KON,hLTBP3-proTGFβ1 [4],6.19E+05 M^−1/s^−1
same,KOFF,hGARP-proTGFβ1 [5],0.00029 s⁻¹
same,KON,hGARP-proTGFβ1 [5],7.03E+05 M^−1/s^−1
same,KOFF,hLTBP1-proTGFβ1 [6],4.98e-05 s⁻¹
same,KON,hLTBP1-proTGFβ1 [6],7.03E+05 M^−1/s^−1
same,binding by ELISA,LLCs,Specific and selective binding
same,KOFF,mLTBP1-proTGFβ1 [7],9.87e-05 s⁻¹
same,KOFF,mLTBP3-proTGFβ1 [8],0.000115 s⁻¹
same,KOFF,mGARP-proTGFβ1 [9],0.000278 s⁻¹
same,KON,mGARP-proTGFβ1 [10],1.02E+06 M^−1/s^−1
same,KON,mLTBP1-proTGFβ1 [11],1.85E+06 M^−1/s^−1
same,KON,mLRRC33-proTGFβ1 [12],1.26E+06 M^−1/s^−1
same,KON,mLTBP3-proTGFβ1 [13],1.20E+06 M^−1/s^−1
same,KOFF,mLRRC33-proTGFβ1 [14],0.000112 s⁻¹
same,% positive pSMAD2 nuclei in liver,CDHFD mice; 30 mg/kg on Day 1 and Day 3 after ten weeks of CDHFD,Significant reduction in % positive pSMAD2 nuclei
same,ratio of phosphorylated versus total SMAD2/3 in the medial lobe (ELISA),"CDHFD mice; 3, 10 and 30 mg/kg on Day 1 and Day 3 after ten weeks of CDHFD, tissue Day 5, p<0.05",Significant reduction in pSMAD2/3
same,reduction in % pSMAD2 nuclei compared to comparable doses of Ab2,CDHFD mice; data not shown,greater
same,"% pSMAD2-positive nuclei, left lateral lobe","[15]; 3, 10 and 30 mg/kg on Day 1 and Day 3 after 12 weeks of CDHFD, tissue Day 5",suppression of SMAD2 phosphorylation; also recorded: able to suppress phosphorylation of SMAD2
same,reduction in percentage of pSMAD2-positive nuclei compared with Ab2,"[15]; rat, in vivo",greater
same,% pSMAD2-positive nuclei,"[15]; single dose 10 mg/kg and 30 mg/kg on Day 1, tissue after 48 hours",appeared to fully suppress SMAD2 phosphorylation; also recorded: significant reduction of pSMAD2-positive nuclei
